Assay results as given in patent US20240352110A1.

Legend:
[1] = biological target: Rf IgM contained in native samples from patients with elevated Rf levels; test: Elecsys µ-capture (anti-IgM-Ru detection); native sample RF_3_7, Rf 318 IU/mL
[2] = biological target: Rf IgM contained in native samples from patients with elevated Rf levels; test: Elecsys µ-capture (anti-IgM-Ru detection); native sample RF_3_12, Rf 457 IU/mL
[3] = biological target: Rf IgM contained in native samples from patients with elevated Rf levels; test: Elecsys µ-capture (anti-IgM-Ru detection); native sample RF-3-11, Rf 383 IU/mL
[4] = biological target: Rf IgM contained in native samples from patients with elevated Rf levels; test: Elecsys µ-capture (anti-IgM-Ru detection); native sample RF_3_8, Rf 402 IU/mL
[5] = biological target: Rf IgM contained in native samples from patients with elevated Rf levels; test: Elecsys µ-capture (anti-IgM-Ru detection); native sample A5, Rf 466 IU/mL
[6] = biological target: Rf IgM contained in native samples from patients with elevated Rf levels; test: Elecsys µ-capture (anti-IgM-Ru detection); native sample E8, Rf 339 IU/mL
[7] = biological target: Rf IgM contained in native samples from patients with elevated Rf levels; test: Elecsys µ-capture (anti-IgM-Ru detection); native sample RF_3_13, Rf 1492 IU/mL
[8] = biological target: Rf IgM contained in native samples from patients with elevated Rf levels; test: Elecsys µ-capture (anti-IgM-Ru detection); native sample RF_2_33, Rf 377 IU/mL
[9] = biological target: Rf IgM contained in native samples from patients with elevated Rf levels; test: Elecsys µ-capture (anti-IgM-Ru detection); native sample D8, Rf 572 IU/mL
[10] = biological target: Rf IgM contained in native samples from patients with elevated Rf levels; test: Elecsys µ-capture (anti-IgM-Ru detection); native sample RF-3-2, Rf 401 IU/mL
[11] = biological target: Rf IgM contained in native samples from patients with elevated Rf levels; test: Elecsys µ-capture (anti-IgM-Ru detection); native sample RF_2_31, Rf 457 IU/mL
[12] = biological target: Rf IgM contained in native samples from patients with elevated Rf levels; test: Elecsys µ-capture (anti-IgM-Ru detection); native sample RF_2_32, Rf 655 IU/mL
[13] = biological target: Rf IgM contained in native samples from patients with elevated Rf levels; test: Elecsys µ-capture (anti-IgM-Ru detection); native sample RF_3_6, Rf 371 IU/mL
[14] = biological target: Rf IgM contained in native samples from patients with elevated Rf levels; test: Elecsys µ-capture (anti-IgM-Ru detection); native sample RF_3_10, Rf 322 IU/mL
[15] = biological target: Rf IgM contained in native samples from patients with elevated Rf levels; test: Elecsys µ-capture (anti-IgM-Ru detection); native sample E2, Rf 423 IU/mL
[16] = biological target: Rf IgM contained in native samples from patients with elevated Rf levels; test: Elecsys µ-capture (anti-IgM-Ru detection); native sample RF_3_1, Rf 430 IU/mL
[17] = biological target: Rf IgM contained in native samples from patients with elevated Rf levels; test: Elecsys µ-capture (anti-IgM-Ru detection); native sample B6, Rf 386 IU/mL
[18] = biological target: Rf IgM contained in native samples from patients with elevated Rf levels; test: Elecsys µ-capture (anti-IgM-Ru detection); native sample RF_3_9, Rf 439 IU/mL
[19] = biological target: Rf IgM contained in native samples from patients with elevated Rf levels; test: Elecsys µ-capture (anti-IgM-Ru detection); native sample D4, Rf 566 IU/mL
[20] = biological target: Rf IgM contained in native samples from patients with elevated Rf levels; test: Elecsys µ-capture (anti-IgM-Ru detection); native sample RF_3_5, Rf 402 IU/mL
[21] = biological target: Rf IgM contained in native samples from patients with elevated Rf levels; test: Elecsys µ-capture (anti-IgM-Ru detection); native sample RF_3_3, Rf 394 IU/mL
[22] = biological target: Rf IgM contained in native samples from patients with elevated Rf levels; test: Elecsys µ-capture (anti-IgM-Ru detection); native sample RF-3-4, Rf 321 IU/mL
[23] = biological target: Rf IgM contained in native samples from patients with elevated Rf levels; test: Elecsys µ-capture (anti-IgM-Ru detection); native sample C9, Rf 640 IU/mL

B1: 21F12 F(ab′)2 fragment (protein)
VH: EVQLQQSGPELLKPGASVKISCKASGFTFTDYTMHWMKQSHGKSLEWIGGINPNSGGTIYNEKFKDKATLTVDKSSRTAYMELRSLTSEDSAVYFCTRGVYDGYFYWGQGTLVTVSA
VL: DVVMTQTPLSLPVSLGDQASISCRSSQSLVYSNGNTFLHWYLQKPGQSPKLLIYKVSTRFSGVPDRFSGSGSGSDFTLKISRVEAEDLGIYFCSQTTHAPFTFGSGTKLAIR
Work on B1 yielded an Elecsys counts [1] of 7580 counts, an Elecsys counts [2] of 5670 counts and an Elecsys counts [3] of 69300 counts. For the same binder, the Elecsys counts [4] was 6820 counts, the Elecsys counts [5] was 11600 counts and the Elecsys counts [6] was 118000 counts. It also gave an Elecsys counts [7] of 4740 counts, an Elecsys counts [8] of 9430 counts and an Elecsys counts [9] of 242000 counts. The Elecsys counts [10] was 282000 counts, the Elecsys counts [11] was 27300 counts and the Elecsys counts [12] was 4220 counts. It also gave an Elecsys counts [13] of 24500 counts, an Elecsys counts [14] of 8620 counts and an Elecsys counts [15] of 102000 counts. The Elecsys counts [16] was 19700 counts, the Elecsys counts [17] was 103000 counts and the Elecsys counts [18] was 14500 counts. It also gave an Elecsys counts [19] of 13300 counts, an Elecsys counts [20] of 10400 counts and an Elecsys counts [21] of 5850 counts. It also gave an Elecsys counts [22] of 99600 counts and an Elecsys counts [23] of 8240 counts.
